{
  "source": "the supplement of paper PMC10126150",
  "note": "± gives the standard deviation of the averaged measurements.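 Also: ATP exposure 15 min at 22 °C before imaging.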",
  "data": [
    {"tested_on": "ATP", "test": "switch fluorescence ratio, 500 uM ATP over buffer (Cy3 cluster intensity, sum of 5 cycles each) (fold (ratio)); higher = stronger signal-on switching upon ATP binding; sequences stand for … in TCGTCGGCAGCGTCAGATGTGTATAAGAGACAGTTTTTTTTTTTTTTTTTTTTTTTTT…TC", "conditions": "aptamer strand: ATP DNA aptamer (quencher-CACCTGGGGGAGTATTGCGGAGGAAGG + anchor), 100 nM annealed; ATP concentration: 500 uM", "outline": "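The fluorescence ratio divides summed target-cycle Cy3 intensity by summed buffer-cycle Cy3 intensity for each cluster and is averaged per switch-domain sequence. Cy3-labelled switching-strand clusters on a modified Illumina MiSeq flow-cell were annealed to 100 nM quencher-labelled ATP aptamer, then imaged in selection buffer and again after 15 min with 500 uM ATP at 22 °C. Five such cycles were run, with NaOH stripping and re-annealing between them, and clusters outside 100-1000 RFU were excluded.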", "values": [
      {"sequence": "AATGTTATGG", "switch fluorescence ratio": "0.9801 ± 0.0031"},
      {"sequence": "TACGCTTTTT", "switch fluorescence ratio": "1.02 ± 0.055"},
      {"sequence": "GGAATACTTT", "switch fluorescence ratio": "1.01 ± 0.028"},
      {"sequence": "CGTCTAAAC", "switch fluorescence ratio": "1.13 ± 0.021"},
      {"sequence": "GTTGTGAGGA", "switch fluorescence ratio": "0.984 ± 0.036"},
      {"sequence": "GTGTTTTGTT", "switch fluorescence ratio": "0.986 ± 0.034"},
      {"sequence": "AAAGTTTTAA", "switch fluorescence ratio": "1.02 ± 0.018"},
      {"sequence": "TTTTATACTT", "switch fluorescence ratio": "1 ± 0.011"},
      {"sequence": "CGTAAGGCAG", "switch fluorescence ratio": "1 ± 0.038"},
      {"sequence": "TGTGTTAGAG", "switch fluorescence ratio": "1.01 ± 0.019"},
      {"sequence": "ATAGGCACGG", "switch fluorescence ratio": "1 ± 0.04"},
      {"sequence": "AGTTAATTGA", "switch fluorescence ratio": "0.9704 ± 0.0093"},
      {"sequence": "GGTATGGTGG", "switch fluorescence ratio": "1.01 ± 0.036"},
      {"sequence": "AAATCTTAAT", "switch fluorescence ratio": "1.002 ± 0.007"},
      {"sequence": "TTTAAAGCTT", "switch fluorescence ratio": "1.01 ± 0.032"},
      {"sequence": "GGTTTGAGGA", "switch fluorescence ratio": "0.971 ± 0.012"},
      {"sequence": "GTTGAAGGAC", "switch fluorescence ratio": "0.996 ± 0.026"},
      {"sequence": "CAGGGGGGAT", "switch fluorescence ratio": "1.04 ± 0.067"},
      {"sequence": "CAGACCGTTT", "switch fluorescence ratio": "1.01 ± 0.018"},
      {"sequence": "GGGTCCTTGT", "switch fluorescence ratio": "1.01 ± 0.041"},
      {"sequence": "GCGTGGGGGT", "switch fluorescence ratio": "1.01 ± 0.012"},
      {"sequence": "AATGTTAGGC", "switch fluorescence ratio": "1.02 ± 0.034"},
      {"sequence": "TTGTACCATA", "switch fluorescence ratio": "1.1 ± 0.071"},
      {"sequence": "ATTTTCATGG", "switch fluorescence ratio": "0.954 ± 0.02"},
      {"sequence": "AGAGAGCCGT", "switch fluorescence ratio": "1.06 ± 0.031"},
      {"sequence": "TATTGGTCAA", "switch fluorescence ratio": "0.962 ± 0.017"},
      {"sequence": "TAGGTATTCA", "switch fluorescence ratio": "0.9988 ± 0.0046"},
      {"sequence": "TTTTTTAGTT", "switch fluorescence ratio": "0.992 ± 0.025"},
      {"sequence": "GGGGTACGAT", "switch fluorescence ratio": "1.02 ± 0.027"},
      {"sequence": "GATGTTTGCG", "switch fluorescence ratio": "0.994 ± 0.034"},
      {"sequence": "GAACTAGGGC", "switch fluorescence ratio": "1.02 ± 0.1"},
      {"sequence": "GATGATGATG", "switch fluorescence ratio": "1.014 ± 0.0022"},
      {"sequence": "GGGTGGTGCC", "switch fluorescence ratio": "0.997 ± 0.056"},
      {"sequence": "GTGGTAAAGG", "switch fluorescence ratio": "0.9739 ± 0.0091"},
      {"sequence": "GGGGGAGCTT", "switch fluorescence ratio": "0.9828 ± 0.0078"},
      {"sequence": "AGGGTTAATG", "switch fluorescence ratio": "1.05 ± 0.017"},
      {"sequence": "AAAGATTTGT", "switch fluorescence ratio": "0.978 ± 0.016"},
      {"sequence": "TTGTTTGGAT", "switch fluorescence ratio": "1.01 ± 0.05"},
      {"sequence": "AAGGGCAGGT", "switch fluorescence ratio": "1.01 ± 0.03"},
      {"sequence": "ATTAGATATA", "switch fluorescence ratio": "1 ± 0.035"},
      {"sequence": "AATTTAATAT", "switch fluorescence ratio": "1.01 ± 0.016"},
      {"sequence": "GGGGGGGAG", "switch fluorescence ratio": "1.02 ± 0.021"},
      {"sequence": "TTTCGTTAAC", "switch fluorescence ratio": "1.06 ± 0.028"},
      {"sequence": "TCAAATAGTT", "switch fluorescence ratio": "0.997 ± 0.0026"},
      {"sequence": "AGGTCCTCTA", "switch fluorescence ratio": "0.974 ± 0.059"},
      {"sequence": "GTTATAAGTG", "switch fluorescence ratio": "0.9924 ± 0.0054"},
      {"sequence": "TTTTAATGTC", "switch fluorescence ratio": "0.984 ± 0.027"},
      {"sequence": "TATCGGGGCA", "switch fluorescence ratio": "0.9622 ± 0.007"},
      {"sequence": "GATGAATGTC", "switch fluorescence ratio": "1.04 ± 0.13"},
      {"sequence": "TACTTATTGT", "switch fluorescence ratio": "0.9755 ± 0.0083"},
      {"sequence": "ACGTTACTCA", "switch fluorescence ratio": "1.5 ± 0.032"},
      {"sequence": "TAGTAAGTCA", "switch fluorescence ratio": "0.976 ± 0.023"},
      {"sequence": "ATCTCGCAGG", "switch fluorescence ratio": "1.08 ± 0.031"},
      {"sequence": "TTAGGATAT", "switch fluorescence ratio": "1.02 ± 0.041"},
      {"sequence": "AGCTGGGATT", "switch fluorescence ratio": "0.989 ± 0.054"},
      {"sequence": "TTCGGCCACG", "switch fluorescence ratio": "1.01 ± 0.036"},
      {"sequence": "TTTGTGAGTT", "switch fluorescence ratio": "1.017 ± 0.0042"},
      {"sequence": "GGTCGTGCGG", "switch fluorescence ratio": "1 ± 0.018"},
      {"sequence": "CTAAATATGA", "switch fluorescence ratio": "0.98 ± 0.035"},
      {"sequence": "AAAAAACGCC", "switch fluorescence ratio": "1.02 ± 0.027"},
      {"sequence": "TATGGTTTTT", "switch fluorescence ratio": "0.996 ± 0.015"},
      {"sequence": "TATTAAGGTT", "switch fluorescence ratio": "0.978 ± 0.021"},
      {"sequence": "TATACGATTG", "switch fluorescence ratio": "0.985 ± 0.013"},
      {"sequence": "CGCGTGATGG", "switch fluorescence ratio": "1 ± 0.021"},
      {"sequence": "TGCCATAATG", "switch fluorescence ratio": "1.02 ± 0.0057"},
      {"sequence": "GCAGTGGTAC", "switch fluorescence ratio": "2.41 ± 0.086"},
      {"sequence": "GGGGGAGGCT", "switch fluorescence ratio": "0.987 ± 0.034"},
      {"sequence": "CGGTGAATTT", "switch fluorescence ratio": "0.98263 ± 0.0009"},
      {"sequence": "TATAGGGGCT", "switch fluorescence ratio": "0.9805 ± 0.0098"},
      {"sequence": "GGCTACGGCG", "switch fluorescence ratio": "0.993 ± 0.016"},
      {"sequence": "GCGTTGCCAG", "switch fluorescence ratio": "0.9816 ± 0.0081"},
      {"sequence": "AGATTTTTGG", "switch fluorescence ratio": "1.003 ± 0.0026"},
      {"sequence": "TTTCGCACTG", "switch fluorescence ratio": "1.1 ± 0.018"},
      {"sequence": "AGTATATGGA", "switch fluorescence ratio": "1.01 ± 0.013"},
      {"sequence": "GGGTATCAGG", "switch fluorescence ratio": "0.965 ± 0.016"},
      {"sequence": "AGGGCGTATT", "switch fluorescence ratio": "0.974 ± 0.026"},
      {"sequence": "ACATGGTAGT", "switch fluorescence ratio": "0.97 ± 0.041"},
      {"sequence": "GGGAATTAAG", "switch fluorescence ratio": "0.989 ± 0.032"},
      {"sequence": "GTGTCCGTTT", "switch fluorescence ratio": "1.05 ± 0.039"},
      {"sequence": "AAATATTGAG", "switch fluorescence ratio": "1 ± 0.015"},
      {"sequence": "GTGGCTAACT", "switch fluorescence ratio": "1.04 ± 0.035"},
      {"sequence": "GGTGCCAAGT", "switch fluorescence ratio": "1.004 ± 0.0052"},
      {"sequence": "CGCCGGACAT", "switch fluorescence ratio": "1.04 ± 0.0027"},
      {"sequence": "CACAAGGGCC", "switch fluorescence ratio": "1.03 ± 0.018"},
      {"sequence": "AATACGAGTC", "switch fluorescence ratio": "1.09 ± 0.022"},
      {"sequence": "AGTTGGCTGA", "switch fluorescence ratio": "0.9967 ± 0.0063"},
      {"sequence": "GTAATGATGG", "switch fluorescence ratio": "0.994 ± 0.036"},
      {"sequence": "GGCTAAGAGT", "switch fluorescence ratio": "0.991 ± 0.02"},
      {"sequence": "TAGCCTTTGG", "switch fluorescence ratio": "0.978 ± 0.034"},
      {"sequence": "TCCTGGGGAT", "switch fluorescence ratio": "0.99 ± 0.039"},
      {"sequence": "TAATTCCCGT", "switch fluorescence ratio": "1.01 ± 0.036"},
      {"sequence": "AGAGTCACGG", "switch fluorescence ratio": "0.982 ± 0.024"},
      {"sequence": "TAGGGGAAAA", "switch fluorescence ratio": "1.02 ± 0.019"},
      {"sequence": "AATTGTGATG", "switch fluorescence ratio": "1.01 ± 0.02"},
      {"sequence": "AATTTAAGCG", "switch fluorescence ratio": "1.01 ± 0.017"},
      {"sequence": "TCAAGTTTGG", "switch fluorescence ratio": "1.02 ± 0.018"},
      {"sequence": "TCAGGGGTTA", "switch fluorescence ratio": "1.03 ± 0.031"},
      {"sequence": "GGCTTGTGTA", "switch fluorescence ratio": "0.965 ± 0.015"},
      {"sequence": "TTTGAGTGAG", "switch fluorescence ratio": "0.9892 ± 0.0098"},
      {"sequence": "TGCAGATTTT", "switch fluorescence ratio": "0.994 ± 0.033"}
    ]}
  ]
}
